Measured values from PMC13140691.

Target: GST-LcGLO1 (litchi)

His-PlAvh133 (natural protein) showed an enzymatic activity of His-LcGLO1 in vitro (glycolate oxidase assay, H2O2 read at 520 nm, 30°C) with His-PlAvh133 added of 40 % inhibition.
